The record followed here is the DeepSol protein solubility set.

A short description of the series: soluble on expression in E. coli; label from the status in PepcDB or PDB records.
As to “GLKEHDFNPEEAEETKQVSWKLVTEYAMETKCDDVLLLLGMYLEFQYSFEMCLKCIKKEQPSHYKYHEKHYANAAIFADSKNQKTICQQAVDTVLAKKRVDSLQLTREQMLTNRFNDLLDRMDIMFGSTGSADIEEWMAGVAWLHCLLPKMDSVVYDFLKCMVYNIPKKRYWLFKGPIDSGKTTLAAALLELCGGKALNVNLPLDRLNFELGVAIDQFLVVFEDVKGTGGESRDLPSGQGINNLDNLRDYLDGSVKVNLEKKHLNKRTQIFPPGIVTMNEYSVPKTLQARFVKQIDFRPKDYLKHCLERSEFLLEKRIIQSGIALLLMLIWYRPVAEFAQSIQSRIVEWKERLDKEFSLSVYQKMKFNVAMGIGVLD”, the “soluble on expression in E. coli” value is on record as “soluble”.
Take “MSLKLISNDLRDGDKLPHRHVFNGMGYDGDNISPHLAWDDVPAGTKSFVVTCYDPDAPTGSGWWHWVVVNLPADTRVLPQGFGSGLVAMPDGVLQTRTDFGKTGYDGAAPPKGETHRYIFTVHALDIERIDVDEGASGAMVGFNVHFHSLASASITAMFSEGGSHHHHHH”: the “soluble on expression in E. coli” value is listed as “soluble”.
Take “MGSDKIHHHHHHMQVRDFIKHLKNGERPPLTLILGEESALRQQAQHAIASMIPEDQQAMNFGRYDMQQTPVGAALNDATSMPFFGDYREVVIDDPYFLTGEKNADKIDHDLAGLQAYFENPVPSTMMVIIAPYKKLDERKRLTKALKKAALIVNAAPLDEREARAALAQTFKKHQVTIDAPALDTLVQRTNGQYSIMMGEVRKLLTYASDGSPLTVAAVEALVPKQLNDRVFDLVTDVLRKNAAAALALYRDLLAQREEPIRLNALMLGQFRLLLQVKLLAKKGYSQGDIAGTLKAHPYRVKLAMRQVDRLPYQQLATAYSGLVDTETAMKTGTIDKALAFELFMLKYTGQQSGKHVRG”: the “soluble on expression in E. coli” value is “not soluble”.
On to “MVIMAGKAVRTEQVSATRQLILTTAERLFAEHGVYAVSNRQVSEAAGQGNNAAVGYHFGTKTDLVRAIAQRHSERVEELRARQLAALGDSPDLRDWVDCLVRPQFDHLAALGSPTWYARFCAQVMTDPALRQIMTEESRASVSLRAIIVGRNRCMPALPDEVRAERGDMARHLIVHTAEERERALAENRPTPRASWQDAADGLVDAIVGMWLAPVTPRGGG”, for which the “soluble on expression in E. coli” value is “not soluble”.
For “MGSDKIHHHHHHMSFEVTFDGMRYSCVNCAYCCSCKNWRVFLSYFDMMRLKGYENYIEKSNSNYEHVLALRNGKCGLIENNLCRIQLEKSYDTKPAMCRLFPFSFMVKWNGDLLLILKHYCGGVQVGKCSKKTIKHAIECCEELYHDQLSEFSLDFAERSDKTSLNEKTEICWEERAELGKYFFKIKKFDSFSEKYSEIFSEDISDSIEKLKSKNSCFDEKTQKLREKETLRYMYELNKREHFRKMSFKKELDNLINVGIIIDDYKDLLKGEGAVDSKLLLN”, the “soluble on expression in E. coli” value was “not soluble”.
Then “MESKHKLSINQWALEDRPREKMMEKGAAALSDAELLAILIGSGNTEESAVELMRRLLLSCDNNLNSLAKWEVCDYSRFKGMGPAKSITVMAALELGKRRKLQNIQERPRISCSRDIYDIFQPVMCDLEQEEFWVLLLNQATRLIDKVRISTGGIDGTYTDVRTILREALLQRATQIAVVHNHPSGNIQPSQPDRTLTEHIRRAADTMNIRLIDHVIVCEDKFYSFADEGLL”, with “not soluble”; and “MAHHHHHHMDTRGLRHLKSYLGKEGEQLARAKRASDVVPVLAARQAAAAAAARATAADVTTVSNTVPAPLSPSVMKYLGGRLASGATHKLSRTQMALAAALAAPGAPSTRGHAEGSENGETALAVTRAKVADMAAAVDTLAVSALELAARRAAEDTEARRSTAESSSLFVLVDTSSEAAEVAGQLEGRYGLTVLLLRDDNACRHPTFPSPASRAGVSTLRGTTSKTPAAERRKTKSNSRTVDEVAPKDEATESTPALAGAVVVVVATPAAFLAVDRRSAIWKFIGSCALLLRRAPTHTGSLLHTLKGIKAAASSSPTKTTPHALNAQRWACIGHVPAIAVLAAEQKWLTEPELDLLTTLRVERHVGSGVGVVSKSTEASVSSAVAALRAPVTVHYAVAQGTHRFQFLFGLLKGLAPHRGIVVHVATRECVAFLYDTLYSLVGELPSHVQLLSDYEGASAYTNMHTTADRQRLCVAFDSTVESGQNGKTAAVLLSCHGLVPRRGSVFLQYDVIPDLLNYNQFIAEVLSPGAVAADAGNDAGGTAPSAAAEVAVRRERMARRRKRSTSPTPAPVAARRVGADAANSAADASSGSKAAIPAAVNYTHILLLFRPNEVAGALRHLRRDGASRYRLEFRELGPRAGGRYFLIGEKLKSMNKKLFPVQNAAYDAYKATMRTYSTIGPRDVYDETKVSLEKVAEEFGYTELPLLDLRLKDTVFRPKEDYYRAARQKQDAERRAYKAFVQGNIVGESPEEHVADSVA”, with “soluble”.
